Source: patent US8481333B2 (IDEXX Laboratories, Inc., priority 2011, dated 2013)
Entries after “also recorded” stand apart in the source; their conditions may differ.

Legend:
[1] = type: in vitro ADME, feline
Protocol: For plasma extraction, 100 uL of plasma was precipitated by addition of 200 uL methanol in a 1.5 mL protein LoBind eppendorf tube. After vortexing for 10 seconds, the precipitate was pelleted by centrifugation at 13,000 rpm for 15 minutes at 10° C. using a benchtop centrifuge. The supernatant was transferred to a limited volume glass HPLC vial and analyzed by LC/MS as described in the following examples.
To characterize the fsNT-proBNP stable degradation products present after incubation in feline plasma, fsNT-proBNP was added to feline plasma at 1, 5, and 10 μg/mL and incubated at room temperature. At 0, 24, 48, 96, and 192 hours, 100 μL aliquots of the plasma were collected and combined with 200 μL of methanol to form a precipitate. After centrifugation, the supernatant was analyzed for stable peptides by LC/MS as described in Example 1.
The relative abundance of several fragments from the N-terminal, capture, and C-terminal regions were evaluated over time.

[2] = feline plasma; settings: room temperature, up to 192 hours

| Sequence | prevalence of polypeptide fragments in plasma [1] | fragment found [2] |
| --- | --- | --- |
| ASEASAIQELLDGLRDTVSEL (Preferred Feline NT-proBNP N-Terminal Peptide Plasma Degradent) [SEQ ID NO: 5] | most prevalent |  |
| HPLGGPGPASEASAIQELLDGLRDTVSELQEAQMALGPLQQGHSPAESWEAQEEPPARVLAPHDNVLRALRRLGSSKM |  | ASEASAIQELLDGLRDTVSEL, major; also recorded: DGLRDTVSEL; also recorded: LDGLRDTVSELQEAQM; also recorded: LGPLQQGHSPAESWEAQEEPPAR; also recorded: LGPLQQGHSPAESWEAQEEPPARVLAPHDNVLR, major; also recorded: LQQGHSPAESWEAQEEPPARVLAPHDNVLR, major; also recorded: VLAPHDNVLR |
| LGPLQQGHSPAESWEAQEEPPARVLAPHDNVLR (Preferred Feline NT-proBNP C-Terminal Peptide Plasma Degradent) [SEQ ID NO: 9] | most prevalent |  |
| LQQGHSPAESWEAQEEPPARVLAPHDNVLR (Preferred Feline NT-proBNP C-Terminal Peptide Plasma Degradent) [SEQ ID NO:10] | most prevalent |  |
